Results: patent US20210371505A1 (Regeneron, published 2021)

Tests used:
Experiment in all cases: cell-based or functional assay
[1] = target: Hemagglutinin of influenza virus A/Shanghai/01/2013-PR8 (H7N9) (Influenza A virus …)
[2] = target: Hemagglutinin of influenza virus A/Philippines/01/1982 (H3N2) (Influenza A virus A/Philippines/01/1982 …)
[3] = target: T1, Hemagglutinin of influenza virus A/Aichi/02/1968-PR8-X31 (H3N2) (Influenza A virus …, UniProt P03437 17-566)
[4] = target: T1, Hemagglutinin of influenza virus …; remark: listed apart in the source

B1: H1H14611N2 (antibody, V domains shown)
VH: EVQLVESGGGLVKPGGSLRLSCAASGFTFSGFSMNWVRQVPGKGLEWVSSISTSGNYMYYADSVKGRFTISRDNAKKSFSLQMNSLRAEDSAIYYCARGGGYNWNLFDYWGQGSLVTVSS
VL: EIVLTQSPGTLSLSPGERATLSCRASQSLNSNYLAWYQQKPGQAPRLLIYGASSRATGIPDRFSGSGSGTDFTLTITRLESEDFAVYYCQQYGNSPLTFGGGTKVEIK
Question: With B1 as the binder, how does the “IC50 of neutralization, cell viability microneutralization assay on MDCK cells” value (from here on “IC50 of neutralization”) [1] read?
Answer: The value was 405 nM.

Question: And the “IC50 of neutralization” value [2]?
Answer: The value was 68.4 nM.

Question: What about the “IC50 of neutralization” value [3] of the same binder?
Answer: The value was 7.83 nM.

Question: What about the “EC50, complement-dependent cytotoxicity of virus-infected MDCK cells” value [4] of the same binder?
Answer: The value was 140 nM.
